From publication PMC10450190, “RIG-I recognizes metabolite-capped RNAs as signaling ligands” come the findings set out here.

In the data set the target is T1, RIG-I (UniProt O95786 1-925).
T1 sequence: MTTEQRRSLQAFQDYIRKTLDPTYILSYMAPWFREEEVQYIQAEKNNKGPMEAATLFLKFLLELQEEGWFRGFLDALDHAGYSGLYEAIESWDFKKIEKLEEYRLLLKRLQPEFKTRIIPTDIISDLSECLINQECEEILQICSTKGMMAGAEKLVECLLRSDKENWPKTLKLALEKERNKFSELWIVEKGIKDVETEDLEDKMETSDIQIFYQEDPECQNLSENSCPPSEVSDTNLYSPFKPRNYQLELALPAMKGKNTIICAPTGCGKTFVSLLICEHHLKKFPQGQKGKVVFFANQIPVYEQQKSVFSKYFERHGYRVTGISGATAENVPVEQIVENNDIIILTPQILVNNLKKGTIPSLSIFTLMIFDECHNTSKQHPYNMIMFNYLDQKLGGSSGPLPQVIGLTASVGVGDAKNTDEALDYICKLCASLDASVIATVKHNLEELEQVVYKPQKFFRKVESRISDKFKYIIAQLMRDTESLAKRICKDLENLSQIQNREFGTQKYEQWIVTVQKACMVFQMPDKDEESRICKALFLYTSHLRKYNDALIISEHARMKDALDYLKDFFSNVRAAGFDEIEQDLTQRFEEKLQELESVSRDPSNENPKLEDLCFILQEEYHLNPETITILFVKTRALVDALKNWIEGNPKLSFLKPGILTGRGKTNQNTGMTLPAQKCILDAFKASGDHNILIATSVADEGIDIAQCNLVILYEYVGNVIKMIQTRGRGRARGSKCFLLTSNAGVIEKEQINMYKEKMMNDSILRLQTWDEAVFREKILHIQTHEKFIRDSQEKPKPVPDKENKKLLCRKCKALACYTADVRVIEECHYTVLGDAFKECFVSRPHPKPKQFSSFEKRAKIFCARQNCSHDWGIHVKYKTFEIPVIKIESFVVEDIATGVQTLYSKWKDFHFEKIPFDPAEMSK
The experiment in a line: competition (fluorescence polarization); 0.5 mM ATP; vs labeled 5' PPP ds39; 50 mM MOPS pH 7.4, 5 mM DTT, 5 mM MgCl2, 0.01% Tween20; 25 C (ATPase, 2 mM ATP; FP, 0.5 mM ATP); EMSA 4 C with 2 mM ATP, 75 nM RIG-I, 25 nM RNA. The following applies: protein: recombinant; tags: none (6xHis-SUMO removed by Ulp1); label: none; single-stranded. (A gel shift assay detects complexes by their altered migration in electrophoresis.)

B1: 5' PPP ss39 (ssRNA)
RNA: AGUUGGUGGUUGUUGUGUGUUUGUGGUUGGUUUGUUUGG
modifications: 5' triphosphate
B1: the binding result is given as “no binding”.

B2: 5' NAD+ ss39 (ssRNA)
RNA: AGUUGGUGGUUGUUGUGUGUUUGUGGUUGGUUUGUUUGG
modifications: 5' NAD+ cap
Consider B2, for which the binding result is “no binding”.
